Laboratory results taken from patent US20130157929A1, “GLUCAGON ANALOGUES” (ZEALAND PHARMA A/S, published 2013).
Starred links: 1 amine or outer side, 2 acyl side, 3 side chain; linkers in the order of their positions; H or OH if unused. Non-standard residues stand in square brackets, D forms with d. Groups on a side chain read outwards from the residue. *: point of attachment. γGlu = O=C(O)[C@H](CCC(=O)[*:2])N[*:1]; Palmitoyl = CCCCCCCCCCCCCCCC(=O)*; hSer = N[C@@H](CCO)C(=O)O; Aib = CC(C)(N)C(=O)O

How the values were obtained:
[1] = target: human glucagon-like peptide 1 receptor (GLP-1R) (human, UniProt P43220); experiment: cell-based or functional assay
[2] = target: human glucagon receptor (glucagon-R) (human, UniProt P47871); experiment: cell-based or functional assay

Row | Binder | EC50 (nM) GLP-1R, cAMP formation [1] | EC50 (nM) GluR, cAMP formation [2]
1 | H-H[Aib][3‑(1-pyrazolyl)alanyl]GTFTSDYSKYLDSK([γGlu-Palmitoyl])AAHDFVEWLLSA-NH2 [Compound 28] | 0.11 nM | 4.85 nM
2 | H-H[Aib][hSer]GTFTSDYSKYLDSK([γGlu-Palmitoyl])AAHDFVEWLLSA-NH2 [Compound 29] | 0.05 nM | 0.79 nM
3 | H-H[Aib]HGTFTSDYSKYLESK([γGlu-Palmitoyl])AAEEFVEWLLEA-NH2 (SMILES CCCCCCCCCCCCCCCC(=O)N[C@@H](CCC(=O)NCCCC[C@H](NC(=O)[C@H](CO)NC(=O)[C@H](CCC(=O)O)NC(=O)[C@H](CC(C)C)NC(=O)[C@H](Cc1ccc(O)cc1)NC(=O)[C@H](CCCCN)NC(=O)[C@H](CO)NC(=O)[C@H](Cc1ccc(O)cc1)NC(=O)[C@H](CC(=O)O)NC(=O)[C@H](CO)NC(=O)[C@@H](NC(=O)[C@H](Cc1ccccc1)NC(=O)[C@@H](NC(=O)CNC(=O)[C@H](Cc1c[nH]cn1)NC(=O)C(C)(C)NC(=O)[C@@H](N)Cc1c[nH]cn1)[C@@H](C)O)[C@@H](C)O)C(=O)N[C@@H](C)C(=O)N[C@@H](C)C(=O)N[C@@H](CCC(=O)O)C(=O)N[C@@H](CCC(=O)O)C(=O)N[C@@H](Cc1ccccc1)C(=O)N[C@H](C(=O)N[C@@H](CCC(=O)O)C(=O)N[C@@H](Cc1c[nH]c2ccccc12)C(=O)N[C@@H](CC(C)C)C(=O)N[C@@H](CC(C)C)C(=O)N[C@@H](CCC(=O)O)C(=O)N[C@@H](C)C(N)=O)C(C)C)C(=O)O) [Compound 31] | 0.09 nM | 0.15 nM
4 | H-H[Aib][3‑(3-thienyl)alanyl]GTFTSDYSKYLDSK([γGlu-Palmitoyl])AAHDFVEWLLSA-NH2 [Compound 27] | 0.27 nM | 1.58 nM
